The values below come from publication PMC1133794.

This series addresses MyoD (UniProt P10085 1-318). The series is described as follows: EMSA. For orientation: A gel shift assay detects complexes by their altered migration in electrophoresis.

Sequence of MyoD (P10085 whole entry): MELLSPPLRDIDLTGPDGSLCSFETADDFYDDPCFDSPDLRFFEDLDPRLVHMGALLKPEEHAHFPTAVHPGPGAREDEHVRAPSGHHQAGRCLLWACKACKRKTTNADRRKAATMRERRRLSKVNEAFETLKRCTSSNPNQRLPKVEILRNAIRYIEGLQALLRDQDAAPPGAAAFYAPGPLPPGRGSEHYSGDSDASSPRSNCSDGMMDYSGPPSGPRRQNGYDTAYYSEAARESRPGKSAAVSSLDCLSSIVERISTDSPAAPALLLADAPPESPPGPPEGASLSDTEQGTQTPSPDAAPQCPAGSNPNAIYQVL

B1: G'2 bimolecular tetraplex integrin 26/integrin 29 (structured_DNA)
DNA 1: CATGGGGGCGGGAAGGGGCGGGGTCT
DNA 2: AAAGGTGGGGCGGCAGGGCGCAAGGCAAT
Take B1: the binding result is recorded as “binds”.
